# Assays:
# [1] = biological target: D100 fragment of fibrinogen (mol. weight 100,000 Da); experiment: ELISA; solid-phase binding: wells coated with Dyn A or fibrinogen D100 overnight at 4 °C, 3 % BSA; GST-αMI-domains in 20 mM Tris-HCl pH 7.4, 100 mM NaCl, 1 mM MgCl2, 1 mM CaCl2, 0.05 % Tween 20, 5 % glycerol, 1.5 h at 22 °C; detected with anti-GST mAb
# [2] = biological target: integrin Mac-1 (αMβ2, CD11b/CD18) on HEK293 cells (UniProt P11215); experiment: inhibition of cell adhesion; calcein-labeled Mac-1-HEK293 cells preincubated with 1 μg/ml NIF, added to wells coated with 2 μM Dyn A; heparin 10 μg/ml on the coated wells where named; adhesion without inhibitors = 100 %
# [3] = biological target: integrin Mac-1 on IC-21 murine macrophages (mouse (endogenous in IC-21)) (UniProt P05555)
# Sequence of integrin Mac-1 on IC-21 murine macrophages (mouse (endogenous in IC-21)) (P05555 17-1153, chain 1 of 2): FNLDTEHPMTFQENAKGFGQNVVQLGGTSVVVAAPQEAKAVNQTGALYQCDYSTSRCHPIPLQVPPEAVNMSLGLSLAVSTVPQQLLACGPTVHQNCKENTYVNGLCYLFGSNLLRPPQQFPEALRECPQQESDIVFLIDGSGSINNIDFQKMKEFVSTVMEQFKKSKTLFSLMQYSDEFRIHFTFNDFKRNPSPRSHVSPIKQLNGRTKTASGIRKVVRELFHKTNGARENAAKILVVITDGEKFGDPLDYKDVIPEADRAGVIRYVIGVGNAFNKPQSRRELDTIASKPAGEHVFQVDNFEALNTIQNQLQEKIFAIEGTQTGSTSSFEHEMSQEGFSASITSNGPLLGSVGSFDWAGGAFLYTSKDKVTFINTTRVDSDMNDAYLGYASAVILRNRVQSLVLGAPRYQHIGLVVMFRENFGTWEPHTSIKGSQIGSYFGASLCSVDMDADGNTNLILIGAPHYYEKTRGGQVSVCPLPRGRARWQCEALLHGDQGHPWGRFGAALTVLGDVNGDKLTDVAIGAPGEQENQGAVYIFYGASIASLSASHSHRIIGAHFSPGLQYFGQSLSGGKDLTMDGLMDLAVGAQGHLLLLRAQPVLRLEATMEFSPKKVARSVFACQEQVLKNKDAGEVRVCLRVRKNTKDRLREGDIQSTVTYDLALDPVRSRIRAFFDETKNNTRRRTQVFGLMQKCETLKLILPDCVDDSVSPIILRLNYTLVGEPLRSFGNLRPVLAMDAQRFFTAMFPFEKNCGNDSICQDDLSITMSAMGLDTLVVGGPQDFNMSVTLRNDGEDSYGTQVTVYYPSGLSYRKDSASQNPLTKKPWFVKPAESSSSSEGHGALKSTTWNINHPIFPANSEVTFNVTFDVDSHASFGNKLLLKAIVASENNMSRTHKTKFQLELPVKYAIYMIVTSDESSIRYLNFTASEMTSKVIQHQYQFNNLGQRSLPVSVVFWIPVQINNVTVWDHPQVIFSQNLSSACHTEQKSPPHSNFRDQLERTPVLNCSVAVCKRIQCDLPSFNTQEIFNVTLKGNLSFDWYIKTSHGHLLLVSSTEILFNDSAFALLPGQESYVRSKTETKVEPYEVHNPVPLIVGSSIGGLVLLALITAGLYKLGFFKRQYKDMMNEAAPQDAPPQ
# Sequence of integrin Mac-1 on IC-21 murine macrophages (mouse (endogenous in IC-21)) (P11835 24-771, chain 2 of 2, further chain): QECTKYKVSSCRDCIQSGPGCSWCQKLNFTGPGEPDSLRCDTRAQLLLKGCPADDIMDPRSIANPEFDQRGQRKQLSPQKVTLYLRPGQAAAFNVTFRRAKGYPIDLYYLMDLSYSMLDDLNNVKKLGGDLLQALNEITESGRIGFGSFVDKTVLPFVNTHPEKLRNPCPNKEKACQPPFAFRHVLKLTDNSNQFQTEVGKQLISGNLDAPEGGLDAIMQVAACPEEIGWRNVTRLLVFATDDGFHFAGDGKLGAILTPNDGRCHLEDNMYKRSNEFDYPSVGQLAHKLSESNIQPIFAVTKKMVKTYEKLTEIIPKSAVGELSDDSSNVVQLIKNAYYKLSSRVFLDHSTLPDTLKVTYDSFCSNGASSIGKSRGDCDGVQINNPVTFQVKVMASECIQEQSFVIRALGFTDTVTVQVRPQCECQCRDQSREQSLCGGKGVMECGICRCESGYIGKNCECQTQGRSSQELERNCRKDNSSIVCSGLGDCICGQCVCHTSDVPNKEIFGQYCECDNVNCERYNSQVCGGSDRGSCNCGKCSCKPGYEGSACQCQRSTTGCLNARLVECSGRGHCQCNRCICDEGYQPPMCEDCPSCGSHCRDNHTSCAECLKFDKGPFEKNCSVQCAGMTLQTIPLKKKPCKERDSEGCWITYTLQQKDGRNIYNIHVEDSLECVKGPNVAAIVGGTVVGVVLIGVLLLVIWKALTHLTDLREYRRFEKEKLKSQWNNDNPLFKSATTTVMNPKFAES
fold binding over the nonactive αMI-domain [1] [fold],Substance,percent inhibition of the adhesion of Mac-1-HEK293 cells to Dyn A (2 μM coating) [2] [%],"percent inhibition of the adhesion of Mac-1-HEK293 cells to Dyn A (2 μM coating), NIF combined with heparin [2] [%]",inhibition by NIF (2 μg/ml) of the phagocytosis of Dyn A-coated beads by IC-21 macrophages (blocked pair: Dyn A and Mac-1) [3] [%]
3.5,"GST-αMI-domain, active conformation (residues Glu123-Lys315) (from UniProt P11215 139-331) (domain or fragment)",–,–,–
–,Neutrophil inhibitory factor (NIF) (natural protein),65,> 95,70

# Source: publication PMC4481117
